According to publication PMC9010429, “Validation of a small molecule inhibitor of PDE6D-RAS interaction with favorable anti-leukemic effects” (Blood Cancer Journal, 2022):

Target: Recombinant human Rac1 (Q2-L177) (human, UniProt P63000 2-177)
Assay: AlphaScreen or HTRF; 30 nM His-Rac1 pre-incubated with compound 30 min at room temperature, then 300 nM FLAG-Tiam1, 2 nM anti-His-Eu3+, 20 nM anti-FLAG-XL665; 50 mM Hepes pH 7.6, 100 mM NaCl, 1 mM DTT, 10 mM MgCl2, 0.1% Nonidet P-40; titration of NSC23766, DW0069 or DW0254
Details: both partners purified

B1: Truncated recombinant human Tiam1 (R1033-E1406) (domain or fragment)
chain: RQLSDADKLRKVICELLETERTYVKDLNCLMERYLKPLQKETFLTQDELDVLFGNLTEMVEFQVEFLKTLEDGVRLVPDLEKLEKVDQFKKVLFSLGGSFLYYADRFKLYSAFCASHTKVPKVLVKAKTDTAFKAFLDAQNPKQQHSSTLESYLIKPIQRILKYPLLLRELFALTDAESEEHYHLDVAIKTMNKVASHINEMQKIHEEFGAVFDQLIAEQTGEKKEVADLSMGDLLLHTTVIWLNPPASLGKWKKEPELAAFVFKTAVVLVYKDGSKQKKKLVGSHRLSIYEDWDPFRFRHMIPTEALQVRALASADAEANAVCEIVHVKSESEGRPERVFHLCCSSPESRKDFLKAVHSILRDKHRRQLLKTE
notes: human Tiam1, residues R1033-E1406, pTriIJ-HV vector; also called FLAG-tagged Tiam1; not shown: FLAG, N-terminal, kept
Question: Does B1 bind?
Answer: Result: binds
